Experimental data: the Human Domainome abundance scans (Beltran et al. 2025)
± gives the uncertainty stated by the source.

B1: GA-binding protein alpha chain, residues 172 to 250; numbered along this chain, Q06546 (parent)
chain: GYRKEQERLGIPYDPIQWSTDQVLHWVVWVMKEFSMTDIDLTTLNISGRELCSLNQEDFFQRVPRGEILWSHLELLRKY

Variants of: B1
Assay: abundance fitness (aPCA) (normalised: wild type 0, dead -1); higher = more abundant; growth selection in yeast, the domain comes from the species named
Details: Homo sapiens

Variant | abundance fitness
GYRKEQERLGIPYDPIQWSTDQVLHWVVWVMKEFSMTDIDLTTLNESGRELCSLNQEDFFQRVPRGEILWSHLELLRKY [I46E] | -0.939 ± 0.22
GYRKEQERLGIPYDPIQWSTDQVLHWVVWVMKEFSMTDIDLTTLNTSGRELCSLNQEDFFQRVPRGEILWSHLELLRKY [I46T] | -0.654 ± 0.078
GYRKEQERLGIPYDPIQWSTDQVLHWVVWVMKEFSMTDIDLTTLNCSGRELCSLNQEDFFQRVPRGEILWSHLELLRKY [I46C] | -0.17 ± 0.06
GYRKEQERLGIPYDPIQWSTDQVLHWVVWVMKEFSMTDIDLTTLNVSGRELCSLNQEDFFQRVPRGEILWSHLELLRKY [I46V] | -0.109 ± 0.043
GYRKEQERLGIPYDPIQWSTDQVLHWVVWVMKEFSMTDIDLTTLNMSGRELCSLNQEDFFQRVPRGEILWSHLELLRKY [I46M] | 0.069 ± 0.06
GYRKEQERLGIPYDPIQWSTDQVLHWVVWVMKEFSMTDIDLTTLNFSGRELCSLNQEDFFQRVPRGEILWSHLELLRKY [I46F] | -0.237 ± 0.1
GYRKEQERLGIPYDPIQWSTDQVLHWVVWVMKEFSMTDIDLTTLNHSGRELCSLNQEDFFQRVPRGEILWSHLELLRKY [I46H] | -0.874 ± 0.35
GYRKEQERLGIPYDPIQWSTDQVLHWVVWVMKEFSMTDIDLTTLNGSGRELCSLNQEDFFQRVPRGEILWSHLELLRKY [I46G] | -0.796 ± 0.073
GYRKEQERLGIPYDPIQWSTDQVLHWVVWVMKEFSMTDIDLTTLNLSGRELCSLNQEDFFQRVPRGEILWSHLELLRKY [I46L] | -0.034 ± 0.042
GYRKEQERLGIPYDPIQWSTDQVLHWVVWVMKEFSMTDIDLTTLNRSGRELCSLNQEDFFQRVPRGEILWSHLELLRKY [I46R] | -0.909 ± 0.09
GYRKEQERLGIPYDPIQWSTDQVLHWVVWVMKEFSMTDIDLTTLNASGRELCSLNQEDFFQRVPRGEILWSHLELLRKY [I46A] | -0.584 ± 0.054
GYRKEQERLGIPYDPIQWSTDQVLHWVVWVMKEFSMTDIDLTTLNSSGRELCSLNQEDFFQRVPRGEILWSHLELLRKY [I46S] | -1 ± 0.096
GYRKEQERLGIPYDPIQWSTDQVLHWVVWVMKEFSMTDIDLTTLNKSGRELCSLNQEDFFQRVPRGEILWSHLELLRKY [I46K] | -0.835 ± 0.24
GYRKEQERLGIPYDPIQWSTDQVLHWVVWVMKEFSMTDIDLTTLNPSGRELCSLNQEDFFQRVPRGEILWSHLELLRKY [I46P] | -1 ± 0.12
GYRKEQERLGIPYDPIQWSTDQVLHWVVWVMKEFSMTDIDLTTLNNSGRELCSLNQEDFFQRVPRGEILWSHLELLRKY [I46N] | -0.644 ± 0.27
GYRKEQERLGIPYDPIQWSTDQVLHWVVWVMKEFSMTDIDLTTLNWSGRELCSLNQEDFFQRVPRGEILWSHLELLRKY [I46W] | -0.257 ± 0.043
GYRKEQERLGIPYDPIQWSTDQVLHWVVWVMKEFSMTDIDLTTLNQSGRELCSLNQEDFFQRVPRGEILWSHLELLRKY [I46Q] | -0.828 ± 0.16
GYRKEQERLGIPYDPIQWSTDQVLHWVVWVMKEFSMTDIDLTTLWISGRELCSLNQEDFFQRVPRGEILWSHLELLRKY [N45W] | -0.276 ± 0.045

Variant | abundance fitness
GYRKEQERLGIPYDPIQWSTDQVLHWVVWVMKEFSMTDIDLTTLEISGRELCSLNQEDFFQRVPRGEILWSHLELLRKY [N45E] | -0.039 ± 0.047
GYRKEQERLGIPYDPIQWSTDQVLHWVVWVMKEFSMTDIDLTTLYISGRELCSLNQEDFFQRVPRGEILWSHLELLRKY [N45Y] | -0.191 ± 0.086
GYRKEQERLGIPYDPIQWSTDQVLHWVVWVMKEFSMTDIDLTTLRISGRELCSLNQEDFFQRVPRGEILWSHLELLRKY [N45R] | -0.038 ± 0.032
GYRKEQERLGIPYDPIQWSTDQVLHWVVWVMKEFSMTDIDLTTLHISGRELCSLNQEDFFQRVPRGEILWSHLELLRKY [N45H] | 0.015 ± 0.068
GYRKEQERLGIPYDPIQWSTDQVLHWVVWVMKEFSMTDIDLTTLIISGRELCSLNQEDFFQRVPRGEILWSHLELLRKY [N45I] | -0.251 ± 0.13
GYRKEQERLGIPYDPIQWSTDQVLHWVVWVMKEFSMTDIDLTTLDISGRELCSLNQEDFFQRVPRGEILWSHLELLRKY [N45D] | -0.148 ± 0.089
GYRKEQERLGIPYDPIQWSTDQVLHWVVWVMKEFSMTDIDLTTLSISGRELCSLNQEDFFQRVPRGEILWSHLELLRKY [N45S] | -0.019 ± 0.033
GYRKEQERLGIPYDPIQWSTDQVLHWVVWVMKEFSMTDIDLTTLAISGRELCSLNQEDFFQRVPRGEILWSHLELLRKY [N45A] | 0.003 ± 0.044
GYRKEQERLGIPYDPIQWSTDQVLHWVVWVMKEFSMTDIDLTTLLISGRELCSLNQEDFFQRVPRGEILWSHLELLRKY [N45L] | -0.195 ± 0.037
GYRKEQERLGIPYDPIQWSTDQVLHWVVWVMKEFSMTDIDLTTLVISGRELCSLNQEDFFQRVPRGEILWSHLELLRKY [N45V] | -0.122 ± 0.039
GYRKEQERLGIPYDPIQWSTDQVLHWVVWVMKEFSMTDIDLTTLTISGRELCSLNQEDFFQRVPRGEILWSHLELLRKY [N45T] | -0.01 ± 0.046
GYRKEQERLGIPYDPIQWSTDQVLHWVVWVMKEFSMTDIDLTTLQISGRELCSLNQEDFFQRVPRGEILWSHLELLRKY [N45Q] | -0.086 ± 0.062
GYRKEQERLGIPYDPIQWSTDQVLHWVVWVMKEFSMTDIDLTTLPISGRELCSLNQEDFFQRVPRGEILWSHLELLRKY [N45P] | -0.373 ± 0.04
GYRKEQERLGIPYDPIQWSTDQVLHWVVWVMKEFSMTDIDLTTLFISGRELCSLNQEDFFQRVPRGEILWSHLELLRKY [N45F] | -0.348 ± 0.11
GYRKEQERLGIPYDPIQWSTDQVLHWVVWVMKEFSMTDIDLTTLMISGRELCSLNQEDFFQRVPRGEILWSHLELLRKY [N45M] | -0.054 ± 0.078
GYRKEQERLGIPYDPIQWSTDQVLHWVVWVMKEFSMTDIDLTTLKISGRELCSLNQEDFFQRVPRGEILWSHLELLRKY [N45K] | 0.032 ± 0.071
GYRKEQERLGIPYDPIQWSTDQVLHWVVWVMKEFSMTDIDLTTLCISGRELCSLNQEDFFQRVPRGEILWSHLELLRKY [N45C] | -0.063 ± 0.066
